Measurements reported in PMC13541077.

Target: recombinant soluble PRRSV-1 Olot/91 glycoprotein 3 ectodomain (sGP3) (PRRSV-1 (Betaarterivirus europensis), strain Olot/91)
Assay: mass photometry; Refeyn MPOne; GP3 at 20 nM in filtered PBS, triplicate; calibrated with BSA, beta-amylase and thyroglobulin

recombinant soluble PRRSV-1 Olot/91 glycoprotein 3 ectodomain (sGP3) (domain or fragment)
stoichiometry N: 2
